Results: patent US20160287732A1, “TUMOR THERAPY BY BISPECIFIC ANTIBODY PRETARGETING” (IMMUNOMEDICS, INC., priority 2015, published 2016)
Like-named read-outs stand apart in the source and are kept apart here. Numbered stars: 1 amine (or outer) side, 2 acyl side, 3 side chain; on linkers, the order of the positions; unused ones are H or OH. Square brackets hold non-standard residues; d marks the D form. Side chains are listed from the residue outwards. Ends that are not written are not given here. Peptide text beside a SMILES is read from it. * marks the point of attachment. X1 = CCc1c2c(nc3ccc(O)cc13)-c1cc3c(c(=O)n1C2)COC(=O)[C@@]3(CC)OC(=O)*; DOTA = O=C(O)CN1CCN(CC(=O)O)CCN(CC(=O)*)CCN(CC(=O)O)CC1; NH(2-(imidazol-4-yl)ethyl) = c1ncc(CCN*)[nH]1; Suc = O=C(CCC(=O)[*:2])[*:1]

Legend:
[1] = tested on: LS174 human colon cancer cell line; test: ^111In IMP 453 biodistribution in scLS174T tumor-bearing nude mice, with or without TF2 pretargeting; type: in vivo; conditions: for Tissue uptake, Kidney / Tissue uptake, Tumor: 3 Hr
Source text: (§1) The higher uptake in the kidneys of pretargeted mice is probably due the presence of bispecific antibody in the blood or kidney. […] In the absence of TF2, there was little uptake of labeled peptide into the tumor (Table 5).

[2] = as above; type: in vivo; conditions: nude, mouse
Source text: as §1

[3] = tested on: LS174T tumors; test: Effect of ^213Bi-IMP288 on growth of TF2-pretargeted LS174T tumors; type: in vivo, nude mice; conditions: single injection; 5 nmol TF2 then 0.28 nmol ^213Bi-IMP288
Method: FIG. 5. Growth curves of subcutaneous LS174T xenografts in nude mice. Mice were injected with 5 nmol TF2 bispecific antibody, followed by a single injection of 0.28 nmol ^213Bi-IMP288 or PBS.
(§2) IMP288 was labeled with ^213Bi and in vitro binding characteristics (IC50, Kd, internalization) were compared with those of ^177Lu-IMP288. Tumor targeting of ^213Bi-IMP288 was studied in mice with s.c. LS174T xenografts that were pretargeted with TF2 bispecific antibody. Finally, the effect of ^213Bi-IMP288 (2.5-14 MBq) on the growth of LS174T tumors was assessed.

[4] = tested on: s.c. LS174T xenografts; test: in vivo; set-up: species or system mice; conditions: mouse
Method: as §2

[5] = in vivo; set-up: species or system mice; conditions: mouse
Method: as §2

[6] = tested on: PKA; conditions: cited from earlier work
[7] = target: TF2 (human); test: in vitro binding assay, format and partner not described; TF2 (anti-CEA x anti-HSG) is the pretargeting antibody of the example
TF2 (human), sequence (heavy, as listed by the source, chain 1 of 2): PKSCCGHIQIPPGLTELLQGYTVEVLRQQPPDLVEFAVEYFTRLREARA
TF2 (human), sequence (heavy, as listed by the source, chain 2 of 2): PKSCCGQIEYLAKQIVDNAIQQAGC

[8] = tested on: human colorectal adenocarcinoma xenografts (LS 174T); test: Pretargeting study with ^125I-TF2 and ^99mTc-IMP-245 in mice bearing s.c. LS 174T xenografts; type: in vivo, female athymic nude mice; conditions: pretargeted with TF2
Method: A pretargeting study was performed with TF2 in female athymic nude mice bearing s.c. human colorectal adenocarcinoma xenografts (LS 174T). Cells were expanded in tissue culture until enough cells had been grown to inject 55 mice s.c. with 1×10^7 cells per mouse. After one week, tumors were measured and mice assigned to groups of 5 mice per time-point. The mean tumor size at the start of this study was 0.105±0.068 cm^3. Twenty mice were injected with 80 μg ^125I-TF2 (500 pmoles, 2 μCi) and 16 h later administered ^99mTc-IMP-245 (40 μCi, 92 ng, 50 pmoles). The mice were sacrificed and necropsied at 0.5, 1, 4, and 24 h post-peptide injection. In addition, 3 mice of the 24 h time-point groups were imaged on a γ-camera at 1, 4, and 24 h post-injection. As a control, 3 additional mice received only ^99mTc-IMP-245 (no pretargeting) and were imaged at 1, 4, and 24 h post-injection, before being necropsied after the 24 h imaging session. Tumor as well as various tissues were removed and placed in a γ-counter to determine % ID/g in tissue at each time-point.

[9] = target: DDD of the RII form of PKA (Homo sapiens, UniProt P13861); conditions: cited from earlier work
DDD of the RII form of PKA, sequence (P13861 whole entry): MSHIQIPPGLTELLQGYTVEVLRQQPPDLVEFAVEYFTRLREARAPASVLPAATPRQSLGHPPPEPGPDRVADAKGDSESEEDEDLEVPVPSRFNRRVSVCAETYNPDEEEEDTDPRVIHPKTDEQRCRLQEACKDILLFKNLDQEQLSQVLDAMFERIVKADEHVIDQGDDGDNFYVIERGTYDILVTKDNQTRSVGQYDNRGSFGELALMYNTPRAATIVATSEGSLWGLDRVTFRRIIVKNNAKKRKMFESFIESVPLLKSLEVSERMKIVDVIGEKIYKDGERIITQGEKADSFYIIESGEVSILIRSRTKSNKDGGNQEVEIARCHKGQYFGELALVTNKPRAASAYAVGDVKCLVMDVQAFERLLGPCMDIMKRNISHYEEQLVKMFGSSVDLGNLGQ

[10] = target: RIIα dimers (Homo sapiens, UniProt P13861); conditions: read-out: Affinity / binding constant; cited from earlier work
RIIα dimers, sequence (P13861 whole entry, canonical isoform): as the sequence (P13861 whole entry) above

[11] = target: RII isoform of PKA (Homo sapiens, UniProt P13861); conditions: cited from earlier work
RII isoform of PKA, sequence (P13861 whole entry, canonical isoform): as the sequence (P13861 whole entry) above

[12] = blood, pretargeted with TF2, read-out: Tissue uptake, Blood
[13] = kidney, pretargeted with TF2, read-out: Tissue uptake, Kidney
[14] = large intestine, pretargeted with TF2, read-out: Tissue uptake, Lg. Int.
[15] = liver, pretargeted with TF2, read-out: Tissue uptake, Liver
[16] = lung, pretargeted with TF2, read-out: Tissue uptake, Lung
[17] = small intestine, pretargeted with TF2, read-out: Tissue uptake, Sm. Int.
[18] = spleen, pretargeted with TF2, read-out: Tissue uptake, Spleen
[19] = stomach, pretargeted with TF2, read-out: Tissue uptake, Stomach
[20] = tumor, pretargeted with TF2, read-out: Tissue uptake, Tumor

## CCc1c2c(nc3ccc(O)cc13)-c1cc3c(c(=O)n1C2)COC(=O)[C@@]3(CC)OC(=O)SC[C@@H](NC(=O)CN1CCN(CC(=O)O)CCN(CC(=O)O)CCN(CC(=O)O)CC1)C(=O)N[C@H](C)C(=O)N[C@H](CCCCNC(=O)CNC(=O)CCC(=O)NCCc1cnc[nH]1)C(=O)N[C@H](Cc1ccc(O)cc1)C(=O)N[C@H](CCCCNC(=O)CNC(=O)CCC(=O)NCCc1cnc[nH]1)C(N)=O [^111In IMP 453, metal not drawn] ({DOTA}-[dC](X1)[dA][dK]([Gly-Suc-NH(2-(imidazol-4-yl)ethyl)])[dY][dK]([Gly-Suc-NH(2-(imidazol-4-yl)ethyl)])-NH2)
[1]; pretargeted with TF2
  Tissue uptake, Kidney: 21 % ID/g
  Tissue uptake, Tumor: 28 % ID/g
  Route of clearance: Most of the peptide was cleared by urinary excretion
[1]; without bsMAb
  Tissue uptake, Kidney: 9.97 % ID/g
  Tissue uptake, Tumor: little uptake
[1]; by 24 hr, pretargeted with TF2
  Initial kidney uptake eliminated: 50%
[2]; [12]
  tissue uptake at 3 h: 0.29 ± 0.03 %ID/g
  tissue uptake at 24 h: 0.09 ± 0.04 %ID/g
  tissue uptake at 48 h: 0.04 ± 0.01 %ID/g
[2]; blood, without bsMAb, read-out: Tissue uptake, Blood
  tissue uptake at 3 h: 0.24 ± 0.01 %ID/g
[2]; [13]
  tissue uptake at 3 h: 21.1 ± 4.14 %ID/g
  tissue uptake at 24 h: 10 ± 2.45 %ID/g
  tissue uptake at 48 h: 7.11 ± 1.17 %ID/g
[2]; kidney, without bsMAb, read-out: Tissue uptake, Kidney
  tissue uptake at 3 h: 9.97 ± 0.94 %ID/g
[2]; [14]
  tissue uptake at 3 h: 1.23 ± 1.41 %ID/g
  tissue uptake at 24 h: 0.23 ± 0.05 %ID/g
  tissue uptake at 48 h: 0.16 ± 0.07 %ID/g
[2]; large intestine, without bsMAb, read-out: Tissue uptake, Lg. Int.
  tissue uptake at 3 h: 0.52 ± 0.27 %ID/g
[2]; [15]
  tissue uptake at 3 h: 0.56 ± 0.08 %ID/g
  tissue uptake at 24 h: 0.53 ± 0.19 %ID/g
  tissue uptake at 48 h: 0.36 ± 0.06 %ID/g
[2]; liver, without bsMAb, read-out: Tissue uptake, Liver
  tissue uptake at 3 h: 0.37 ± 0.18 %ID/g
[2]; [16]
  tissue uptake at 3 h: 0.56 ± 0.1 %ID/g
  tissue uptake at 24 h: 0.18 ± 0.07 %ID/g
  tissue uptake at 48 h: 0.14 ± 0.03 %ID/g
[2]; lung, without bsMAb, read-out: Tissue uptake, Lung
  tissue uptake at 3 h: 0.31 ± 0.14 %ID/g
[2]; [17]
  tissue uptake at 3 h: 0.68 ± 0.45 %ID/g
  tissue uptake at 24 h: 0.22 ± 0.09 %ID/g
  tissue uptake at 48 h: 0.12 ± 0.03 %ID/g
[2]; small intestine, without bsMAb, read-out: Tissue uptake, Sm. Int.
  tissue uptake at 3 h: 0.2 ± 0.1 %ID/g
[2]; [18]
  tissue uptake at 3 h: 0.37 ± 0.11 %ID/g
  tissue uptake at 24 h: 0.66 ± 0.89 %ID/g
  tissue uptake at 48 h: 0.25 ± 0.07 %ID/g
[2]; spleen, without bsMAb, read-out: Tissue uptake, Spleen
  tissue uptake at 3 h: 0.22 ± 0.07 %ID/g
[2]; [19]
  tissue uptake at 3 h: 0.41 ± 0.33 %ID/g
  tissue uptake at 24 h: 0.2 ± 0.12 %ID/g
  tissue uptake at 48 h: 0.07 ± 0.01 %ID/g
[2]; stomach, without bsMAb, read-out: Tissue uptake, Stomach
  tissue uptake at 3 h: 0.11 ± 0.06 %ID/g
[2]; [20]
  tissue uptake at 3 h: 28.3 ± 4.03 %ID/g
  tissue uptake at 24 h: 15.4 ± 1.18 %ID/g
  tissue uptake at 48 h: 9.69 ± 1.97 %ID/g
[2]; tumor, without bsMAb, read-out: Tissue uptake, Tumor
  tissue uptake at 3 h: 0.37 ± 0.09 %ID/g

## NC(=O)[C@@H](CCCCNC(=O)CNC(=O)CCC(=O)NCCc1c[nH]cn1)NC(=O)[C@@H](CCC(=O)O)NC(=O)[C@@H](CCCCNC(=O)CNC(=O)CCC(=O)NCCc1c[nH]cn1)NC(=O)[C@@H](Cc1ccc(O)cc1)NC(=O)CN1CCN(CC(=O)O)CCN(CC(=O)O)CCN(CC(=O)O)CC1 [^213Bi-IMP288, metal not drawn] ({DOTA}-[dY][dK]([Gly-Suc-NH(2-(imidazol-4-yl)ethyl)])[dE][dK]([Gly-Suc-NH(2-(imidazol-4-yl)ethyl)])-NH2)
[3]
  Tumor growth: significantly inhibited
[4]
  Tumor targeting relative to ^177Lu-IMP288: comparable
[5]
  tissue uptake at 0.25 h: 9.3 ± 2 %ID/g

## DLIEEAASRIVDAVIEQVKAAGAY [Ht-31]
[6]
  PKA isoform preference: greater affinity for the RII isoform

## FEELAWKIAKMIWSDVFQQC [PV-38]
[6]
  PKA isoform preference: higher affinity for RI

## IMP288 (peptide)
[7]
  IQ: 0.8 nM

## IMP-245: di-HSG-based peptide effector labeled with ^99mTc (FKYKK; not fully specified; also: labelled with 99mTc)
[8]; 0.5 h post-peptide injection
  Tumor uptake: 22±3 % ID/g
[8]; 1 h post-peptide injection
  Tumor uptake: 30±14 % ID/g
[8]; 4 h post-peptide injection
  Tumor uptake: 25±4 % ID/g
[8]; 24 h post-peptide injection
  Tumor uptake: 16±3 % ID/g

## LEQYANQLADQIIKEATE [RIAD]
[6]
  PKA isoform preference: higher affinity for RI

## PEDAELVRLSKRDVENAVLKAVQQY [AKAP7δ-L308D-pep]
[9]
  Affinity for the RII DDD sequence: particularly high affinities

## PEDAELVRLSKRLVENAVLKAVQQY [AKAP7δ-wt-pep]
[9]
  Affinity for the RII DDD sequence: particularly high affinities

## PEDAELVRTSKRLVENAVLKAVQQY [AKAP7δ-L304T-pep]
[9]
  Affinity for the RII DDD sequence: particularly high affinities

## QIEYLAKQIVDNAIQQA [AKAP-IS]
[9]
  Affinity for the RII DDD sequence: particularly high affinities
[10]
  Kd: 0.4 nM

## QIEYVAKQIVDYAIHQA [SuperAKAP-IS]
[11]
  Selectivity for the RII isoform of PKA compared with the RI isoform: five order of magnitude higher
